{
  "source": "paper PMC11172107",
  "target": "T1, ArgR-His6 (Vibrio fluvialis 85003) (UniProt A0AAX2LJS0)",
  "T1 sequence": "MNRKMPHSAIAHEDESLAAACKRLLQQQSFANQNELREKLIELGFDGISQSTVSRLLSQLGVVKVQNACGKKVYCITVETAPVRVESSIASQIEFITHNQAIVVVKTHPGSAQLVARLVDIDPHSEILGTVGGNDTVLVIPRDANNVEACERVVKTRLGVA",
  "test": "EMSA",
  "conditions": "EMSA: 20 mM Tris/HCl pH 7.6, 50 mM KCl, 1 mM EDTA, 5% glycerol, 200 ng BSA, 500 ng dI-dC, 15 ng probe, 30 C 20 min; footprinting: 5.40 uM ArgR-His6, 40 uL …",
  "data": [
    {"sequence": "CCGCAGGCTCTTTAGAATTTCTTTAACGATGAAGTGAAATTCACTTTATCACCATGAATAACAATAAAAGTTTTCACCATATTTATTACAAGTCCTAAGCTTTATTCCACGAAATACGTTGCCATATTGAATAGTATTGCAATAAACGTTTTCTAAATGAGTGAATTGAGGTGTGGG (double strand) [arcD2 probe]", "values": [
      {"measurement": "binding", "result": "binds"}
    ]}
  ]
}
